These sequences were tested against Hck (UniProt P08631) (assay: phosphorylation enrichment, bacterial display (enrichment ratio); higher = better substrate or ligand; peptides without Tyr show the background).
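Note: 11-residue human phosphosite peptides and single-mutation variants displayed on the E. coli surface, counted by deep sequencing, each peptide's frequency after selection divided by its frequency in the unselected input library; frequency after pTyr selection over input frequency; kinase dosed for 20-30% of maximal phosphorylation in three min.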

Chain of Hck (P08631 whole entry, looked up): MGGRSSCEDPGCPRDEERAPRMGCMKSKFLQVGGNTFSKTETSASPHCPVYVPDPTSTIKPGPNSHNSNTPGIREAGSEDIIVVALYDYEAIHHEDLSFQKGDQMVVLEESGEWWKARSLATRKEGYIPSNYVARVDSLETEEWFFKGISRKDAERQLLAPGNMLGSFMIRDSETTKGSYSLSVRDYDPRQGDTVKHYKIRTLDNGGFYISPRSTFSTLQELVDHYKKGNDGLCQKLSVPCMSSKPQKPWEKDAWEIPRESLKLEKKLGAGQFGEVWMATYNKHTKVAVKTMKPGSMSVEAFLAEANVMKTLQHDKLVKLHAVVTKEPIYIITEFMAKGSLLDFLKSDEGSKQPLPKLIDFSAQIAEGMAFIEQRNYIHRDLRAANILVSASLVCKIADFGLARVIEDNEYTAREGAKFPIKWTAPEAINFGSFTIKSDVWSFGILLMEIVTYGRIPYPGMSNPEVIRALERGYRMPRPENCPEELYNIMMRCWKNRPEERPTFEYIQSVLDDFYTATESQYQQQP

| Sequence | phosphorylation enrichment |
| --- | --- |
| SFSGEYGSGGG [ZG16_Y30_G32S_YF] | 0.496 |
| SVTCTYSPAVN [TP53_Y126_L130V] | 0.654 |
| TWQSMYGCDVG [HLA-B_Y123_L119W] | 0.498 |
| CWAVKYLQMVG [AVPR2_Y117_R113W] | 0.466 |
| TKDTFYKQPVF [GBA_Y451_M455V] | 0.312 |
| RESYKYFPSSL [CXXC1_Y218] | 0.685 |
| EAEALYQTKFQ [KRT73_Y325] | 2.65 |
| GLTSTYVGIRK [ROBO1_Y932_A933V] | 1.67 |
| YRKNTYNVKST [SYNE2_Y575_I574T] | 0.346 |
| KEAQVYQAFRL [SUCLG2_Y343_K347R] | 14 |
| QEGPEYWDEET [HLA-A_Y83_Q86E] | 1.05 |
| HEVHIYENSGA [ARPC1B_Y35_K37N] | 1.62 |
| DFPMGYPSYLA [TBCK_Y153_I151M] | 0.367 |
| SGEKPYKCSVC [ZNF543_Y283_E287V] | 0.255 |
| LRYDSYSSYCN [SLC20A2_Y433] | 0.949 |
| RDLHTYIMPAH [PNMT_Y256_R254H] | 0.748 |
| CFVFFYSFLLK [PTEN_Y178_R173C_YF] | 0.578 |

| Sequence | phosphorylation enrichment |
| --- | --- |
| HKNNNYEPSLF [BRCA2_Y57_N60S] | 0.563 |
| LINPKYSVEEE [PCDH19_Y27_L25P] | 0.55 |
| LLVVLNKFRCF [PSEN1_Y154_Y154N_YF] | 0.837 |
| CPPELYALMSD [ZAP70_Y569] | 1.08 |
| VNYQPYRKHKY [TEX37_Y28_D24N] | 0.451 |
| HAEERYGKELV [PSTPIP1_Y53_Q48H] | 1.02 |
| TQNAVYSAANY [DDX5_Y535_G533A] | 11.1 |
| GITVTYTIPKK [UBA5_Y372_A371T] | 0.54 |
| QRHFVYFFSFL [PTEN_Y176_R173H_YF] | 1.09 |
| RAILLYEYVGK [NATD1_Y45_V42I] | 15.5 |
| VDLIVYLWTNP [TK2_Y181_R183W] | 0.456 |
| KKKKQYKGKFL [CASK_Y708_D710G_YF] | 0.523 |
| RLRAAYNLVKR [PFKM_Y103] | 0.698 |
| PGGNIYISPLK [RB1_Y805] | 2.65 |
| GGFTWYCDGKK [PROS1_Y266_C265W_YF] | 0.389 |
| HSVLNYGVCVC [JAK2_Y613_L609S] | 0.62 |

Each sequence was assayed on c-Abl (mouse) in the same assay as above.

| Sequence | phosphorylation enrichment |
| --- | --- |
| SFSGEYGSGGG [ZG16_Y30_G32S_YF] | 0.564 |
| SVTCTYSPAVN [TP53_Y126_L130V] | 1.18 |
| TWQSMYGCDVG [HLA-B_Y123_L119W] | 1.03 |
| CWAVKYLQMVG [AVPR2_Y117_R113W] | 0.817 |
| TKDTFYKQPVF [GBA_Y451_M455V] | 0.764 |
| RESYKYFPSSL [CXXC1_Y218] | 0.77 |
| EAEALYQTKFQ [KRT73_Y325] | 0.85 |
| GLTSTYVGIRK [ROBO1_Y932_A933V] | 0.565 |
| YRKNTYNVKST [SYNE2_Y575_I574T] | 0.351 |
| KEAQVYQAFRL [SUCLG2_Y343_K347R] | 19.6 |
| QEGPEYWDEET [HLA-A_Y83_Q86E] | 1.32 |
| HEVHIYENSGA [ARPC1B_Y35_K37N] | 1.32 |
| DFPMGYPSYLA [TBCK_Y153_I151M] | 0.507 |
| SGEKPYKCSVC [ZNF543_Y283_E287V] | 0.493 |
| LRYDSYSSYCN [SLC20A2_Y433] | 0.824 |
| RDLHTYIMPAH [PNMT_Y256_R254H] | 0.878 |
| CFVFFYSFLLK [PTEN_Y178_R173C_YF] | 0.86 |

| Sequence | phosphorylation enrichment |
| --- | --- |
| HKNNNYEPSLF [BRCA2_Y57_N60S] | 0.659 |
| LINPKYSVEEE [PCDH19_Y27_L25P] | 1.39 |
| LLVVLNKFRCF [PSEN1_Y154_Y154N_YF] | 2.08 |
| CPPELYALMSD [ZAP70_Y569] | 0.681 |
| VNYQPYRKHKY [TEX37_Y28_D24N] | 0.688 |
| HAEERYGKELV [PSTPIP1_Y53_Q48H] | 0.688 |
| TQNAVYSAANY [DDX5_Y535_G533A] | 4.56 |
| GITVTYTIPKK [UBA5_Y372_A371T] | 2.12 |
| QRHFVYFFSFL [PTEN_Y176_R173H_YF] | 1.31 |
| RAILLYEYVGK [NATD1_Y45_V42I] | 2.4 |
| VDLIVYLWTNP [TK2_Y181_R183W] | 0.897 |
| KKKKQYKGKFL [CASK_Y708_D710G_YF] | 0.547 |
| RLRAAYNLVKR [PFKM_Y103] | 0.815 |
| PGGNIYISPLK [RB1_Y805] | 1.75 |
| GGFTWYCDGKK [PROS1_Y266_C265W_YF] | 0.928 |
| HSVLNYGVCVC [JAK2_Y613_L609S] | 0.925 |

The sequences below were run on Fer (mouse) in the same assay as above.

| Sequence | phosphorylation enrichment |
| --- | --- |
| SFSGEYGSGGG [ZG16_Y30_G32S_YF] | 0.46 |
| SVTCTYSPAVN [TP53_Y126_L130V] | 0.646 |
| TWQSMYGCDVG [HLA-B_Y123_L119W] | 0.548 |
| CWAVKYLQMVG [AVPR2_Y117_R113W] | 0.504 |
| TKDTFYKQPVF [GBA_Y451_M455V] | 0.308 |
| RESYKYFPSSL [CXXC1_Y218] | 0.82 |
| EAEALYQTKFQ [KRT73_Y325] | 0.964 |
| GLTSTYVGIRK [ROBO1_Y932_A933V] | 0.374 |
| YRKNTYNVKST [SYNE2_Y575_I574T] | 0.327 |
| KEAQVYQAFRL [SUCLG2_Y343_K347R] | 14 |
| QEGPEYWDEET [HLA-A_Y83_Q86E] | 0.951 |
| HEVHIYENSGA [ARPC1B_Y35_K37N] | 1.26 |
| DFPMGYPSYLA [TBCK_Y153_I151M] | 0.362 |
| SGEKPYKCSVC [ZNF543_Y283_E287V] | 0.398 |
| LRYDSYSSYCN [SLC20A2_Y433] | 0.577 |
| RDLHTYIMPAH [PNMT_Y256_R254H] | 0.564 |
| CFVFFYSFLLK [PTEN_Y178_R173C_YF] | 0.487 |

| Sequence | phosphorylation enrichment |
| --- | --- |
| HKNNNYEPSLF [BRCA2_Y57_N60S] | 0.791 |
| LINPKYSVEEE [PCDH19_Y27_L25P] | 0.977 |
| LLVVLNKFRCF [PSEN1_Y154_Y154N_YF] | 0.951 |
| CPPELYALMSD [ZAP70_Y569] | 1.19 |
| VNYQPYRKHKY [TEX37_Y28_D24N] | 0.41 |
| HAEERYGKELV [PSTPIP1_Y53_Q48H] | 0.732 |
| TQNAVYSAANY [DDX5_Y535_G533A] | 2.8 |
| GITVTYTIPKK [UBA5_Y372_A371T] | 0.497 |
| QRHFVYFFSFL [PTEN_Y176_R173H_YF] | 1.11 |
| RAILLYEYVGK [NATD1_Y45_V42I] | 26.3 |
| VDLIVYLWTNP [TK2_Y181_R183W] | 0.841 |
| KKKKQYKGKFL [CASK_Y708_D710G_YF] | 0.439 |
| RLRAAYNLVKR [PFKM_Y103] | 0.771 |
| PGGNIYISPLK [RB1_Y805] | 0.804 |
| GGFTWYCDGKK [PROS1_Y266_C265W_YF] | 0.438 |
| HSVLNYGVCVC [JAK2_Y613_L609S] | 0.692 |

The sequences below were run against Fyn (UniProt P06241) in the same assay as above.
Chain of Fyn (P06241 whole entry, looked up): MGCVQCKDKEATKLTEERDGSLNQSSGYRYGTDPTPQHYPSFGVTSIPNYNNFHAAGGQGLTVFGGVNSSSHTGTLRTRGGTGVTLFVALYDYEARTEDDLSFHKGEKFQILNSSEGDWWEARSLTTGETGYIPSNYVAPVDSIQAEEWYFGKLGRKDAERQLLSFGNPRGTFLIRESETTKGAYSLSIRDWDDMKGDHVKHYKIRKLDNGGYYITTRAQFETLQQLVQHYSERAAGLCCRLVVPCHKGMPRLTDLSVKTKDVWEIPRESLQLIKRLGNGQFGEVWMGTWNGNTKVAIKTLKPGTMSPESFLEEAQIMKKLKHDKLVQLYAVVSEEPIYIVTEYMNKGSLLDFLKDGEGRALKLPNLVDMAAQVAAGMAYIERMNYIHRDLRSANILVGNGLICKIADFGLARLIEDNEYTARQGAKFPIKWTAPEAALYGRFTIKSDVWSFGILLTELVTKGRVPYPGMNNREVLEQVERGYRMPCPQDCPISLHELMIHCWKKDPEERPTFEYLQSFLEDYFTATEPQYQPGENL

| Sequence | phosphorylation enrichment |
| --- | --- |
| SFSGEYGSGGG [ZG16_Y30_G32S_YF] | 0.43 |
| SVTCTYSPAVN [TP53_Y126_L130V] | 0.58 |
| TWQSMYGCDVG [HLA-B_Y123_L119W] | 0.531 |
| CWAVKYLQMVG [AVPR2_Y117_R113W] | 0.413 |
| TKDTFYKQPVF [GBA_Y451_M455V] | 0.386 |
| RESYKYFPSSL [CXXC1_Y218] | 0.843 |
| EAEALYQTKFQ [KRT73_Y325] | 1.32 |
| GLTSTYVGIRK [ROBO1_Y932_A933V] | 0.528 |
| YRKNTYNVKST [SYNE2_Y575_I574T] | 0.344 |
| KEAQVYQAFRL [SUCLG2_Y343_K347R] | 14.2 |
| QEGPEYWDEET [HLA-A_Y83_Q86E] | 1.02 |
| HEVHIYENSGA [ARPC1B_Y35_K37N] | 1.04 |
| DFPMGYPSYLA [TBCK_Y153_I151M] | 0.443 |
| SGEKPYKCSVC [ZNF543_Y283_E287V] | 0.373 |
| LRYDSYSSYCN [SLC20A2_Y433] | 0.837 |
| RDLHTYIMPAH [PNMT_Y256_R254H] | 1.19 |
| CFVFFYSFLLK [PTEN_Y178_R173C_YF] | 0.459 |

| Sequence | phosphorylation enrichment |
| --- | --- |
| HKNNNYEPSLF [BRCA2_Y57_N60S] | 0.652 |
| LINPKYSVEEE [PCDH19_Y27_L25P] | 0.797 |
| LLVVLNKFRCF [PSEN1_Y154_Y154N_YF] | 1.02 |
| CPPELYALMSD [ZAP70_Y569] | 0.612 |
| VNYQPYRKHKY [TEX37_Y28_D24N] | 0.352 |
| HAEERYGKELV [PSTPIP1_Y53_Q48H] | 0.614 |
| TQNAVYSAANY [DDX5_Y535_G533A] | 8.89 |
| GITVTYTIPKK [UBA5_Y372_A371T] | 0.413 |
| QRHFVYFFSFL [PTEN_Y176_R173H_YF] | 1.07 |
| RAILLYEYVGK [NATD1_Y45_V42I] | 11.2 |
| VDLIVYLWTNP [TK2_Y181_R183W] | 0.421 |
| KKKKQYKGKFL [CASK_Y708_D710G_YF] | 0.532 |
| RLRAAYNLVKR [PFKM_Y103] | 0.632 |
| PGGNIYISPLK [RB1_Y805] | 0.804 |
| GGFTWYCDGKK [PROS1_Y266_C265W_YF] | 0.328 |
| HSVLNYGVCVC [JAK2_Y613_L609S] | 0.564 |
